Data published in the supplement of paper PMC9170038.

Experiments:
[1] = system: MS2 coat protein; experiment: apparent KD of MS2 coat protein, switch OFF state (with FMN for OFF switches, without FMN for ON switches); designed switch direction (-1 OFF switch, 1 ON switch): -1; higher = weaker reporter binding; details: FMN input: 0 or 200 uM; Eterna round: R93 (includes R88 designs)
Summary of the method: (§1)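 Apparent KD is reported per design as the median of normalised binding-curve fits across its clusters. The RNA switches were made by on-chip transcription from Illumina sequencing clusters. SNAP-549-labelled MS2 coat protein was then added in twofold steps (0.7 or 1.5 nM to 3 µM; 0.8–1.5 h to 10–20 min per step) in 100 mM Tris-HCl pH 7.5, 80 mM KCl, 4 mM MgCl2, without or with constant ligand.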

[2] = system: MS2 coat protein; experiment: apparent KD of MS2 coat protein, switch ON state; designed switch direction (-1 OFF switch, 1 ON switch): -1; higher = weaker reporter binding; details: FMN input: 0 or 200 uM; Eterna round: R93 (includes R88 designs)
Summary of the method: as §1

Row | Sequence | apparent KD of MS2 coat protein [1] | apparent KD of MS2 coat protein [2]
1 | AAAAAGUGAGGAUAUACGAAAAAAAAAAAAAAAAAAGGUGAACAUGAGGAUCACCCAUGUAGAAGGCACAAAAA [Black Design] | 312 nM | 102 nM
2 | AAAAAACAUGAGGAUCACCCAUGUGAGGAUAUGACGUAAAUAAAGAAAGAAUAAAUCGUCAGAAGGCACACCAA [Mat - Exclusion 1 - Eli mod - D71] | 49.2 nM | 31.4 nM
3 | AAAACUGGAGGAUAUACAUGAGGAUCACCCAUGUGUGGAUGAGCUGAGACGGCAUCACGUAGAAGGCCACAAAA [Gilly Gone Silly 39 - Jieux - Exclusion 3] | 44 nM | 33.2 nM
4 | AGAAAGUCAGGAUAUGCGAAGGCGUCUGAUAGACGAGGCUAGCAGAAGGGACAUGAGGAUCACCCAUGUGAAGA [Mat - Exclusion 4 - Eli mod - D85] | 86.4 nM | 55 nM
5 | AAAAAGGGAGGAUAUGCAAAGGGAAAGGGAAAGGGAAAGGGACAUGAGGAUCACCCAUGUAGAAGGCUCAAAAA [scarecrow2] | 34 nM | 56.1 nM
6 | AAAAAGUGAGGAUAUACAUGAGGAUCACCCAUGUGAAGGGAAGAGAGAGAGAGAGAGAGUAGAAGGCACAAAAA [Default title] | 96.3 nM | 98.8 nM
7 | CUCAAGUUAGGAUAUCUAAGAAAAGAAGAGAAAGAAAAGAAAGAGAAGGAACAUGAGGAUCACCCAUGUAAGAA [EteRNA is fun!] | 25.7 nM | 18.4 nM
8 | CACGUACAUGAGGAUCACCCAUGUUAGGAUAUGCCGGGUAAGAGAAAACUAAAAACCCGUAGAAGGGACGAAAC [Bilbo Confounded 13 - Jieux - Exclusion 1] | 28.6 nM | 23.3 nM
9 | AAAAAACAUGAGGAUCACCCAUGUCAGGAUAUACGAUAAAAAAAAAAAAAAAAAAAAUGUAGAAGGGACAAAAA [Simple 1] | 60.8 nM | 60.3 nM
10 | AGACAUACAGGAUAUACAUGGGAAAAAAAAAAAAAAAUUCUACAUGAGGAUCACCCAUGUAGAAGGGUAUGUCA [Ex2 Design 171: Random 1B] | 31.1 nM | 81.1 nM
11 | CUUAUGUGAGGAUAUGUACAGAAAAAAAAGGGUGUAACUGUACAGAAGGCACAUGAGGAUCACCCAUGUGAAUA [EX4 380: S S Pseudoknot 5] | 25.1 nM | 61.9 nM
12 | AAUACACAUGAGGAUCACCCAUGUAAGGAUAUCGAAAAAAAAAUAAACAAAAAACAAACGAGAAGGUACAAAAA [Exclusion 1 design 3] | 33.6 nM | 33.2 nM
13 | AAAAAACAUGAGGAUCACCCAUGUAAGGAUAUCUAAAAUAAAAGAAAAAUAAAGAAAAGGAGAAGGUACAUGCA [JL wbt mod 26] | 34.5 nM | 32 nM
14 | AAGAAGUCAGGAUAUGCCAAAGAUCACGAAAGUGACUAAGGGCAGAAGGGACAUGAGGAUCACCCAUGUAAAGA [Opal 4] | 52.8 nM | 42.9 nM
15 | AUGGUAGGAGGAUAUACAUAGAUACAGAUACAUGUAGACGUACAUGAGGAUCACCCAUGUAGAAGGCCUAUAAA [Mat - Same state - Mayanna Mod - D150] | 82.3 nM | 97.9 nM
16 | AGCUAGUCAGGAUAUACGAACAUGUCGAAAGACGUGAAGGGACAUGAGGAUCACCCAUGUAGAAGGGACUAGCA [Mat - Exclusion 2 - JL mod - D1] | 120 nM | 34.2 nM
17 | AACCAACAUGAGGAUCACCCAUGUCAGGAUAUGCAAACAACAAACAACAAACAACAAAGCAGAAGGGACAACAA [63%, Olong, 1] | 21.1 nM | 15.2 nM
